The record followed here is patent US20180051082A1 (ANAPTYSBIO, published 2018).

In experiment [1] the target is T1, monomeric soluble human PD1-Avi-His (human, UniProt Q15116 25-170).
T1 construct: extracellular domain; not shown: Avi tag and His tag at the C-terminus
Nature of the experiment: KINEXA 3000 solution-based affinity, PD1-Avi-His titrated against constant antibody. The method, then:
Solution-based affinity analyses were carried out using a KINEXA™ 3000 assay (Sapidyne Instruments, Boise, Idaho), and results were analyzed using KINEXA™ Pro Software 3.2.6. Experimental parameters were selected to reach a maximum signal with antibody alone between 0.8 and 1.2 V, while limiting nonspecific binding signal with buffer alone to less than 10% of the maximum signal. Azlactone beads (50 mg) were coated with antigen by diluting in a solution of PD-1-Avi-His (50 μg/mL in 1 mL) in 50 mM Na₂CO₃. The solution was rotated at room temperature for 2 hours, and beads were pelleted in a picofuge and washed twice with blocking solution (10 mg/mL BSA, 1 M Tris-HCl, pH 8.0). Beads were resuspended in blocking solution (1 mL), rotated at room temperature for 1 hour, and diluted in 25 volumes PBS/0.02% NaN3. […] All samples were diluted in PBS, 0.2% NaN₃, 1 mg/mL BSA and allowed to equilibrate at room temperature for 30 hours. Additionally, samples containing only antibody and only buffer were tested in order to determine maximum signal and nonspecific binding signal, respectively.

The target of experiment [2] is T1, monomeric soluble human PD1-Avi-His. Nature of the experiment: SPR (BIACORE T200), antibody captured on anti-human IgG, monomeric PD1-Avi-His flowed, 1:1 fit. The method, then: SPR analyses were carried out using a BIACORE™ T200 instrument, and kinetic constants were determined using the BIACORE™ T200 evaluation software. Experimental parameters were chosen to ensure that saturation would be reached at the highest antigen concentrations and that Rmax values would be kept under 30 RU. GE anti-Human IgG (Fc-specific, approximately 7,000 RU) was immobilized on a BIACORETM CM5 chip using EDC-activated amine coupling chemistry. Antibodies (0.5 μg/mL, 60 second capture time) were then captured using this surface. Next, monomeric soluble human PD1-Avi-His was flowed over captured antibody (300 second association, 300 second dissociation) using a three-fold serial dilution series from 500 nM to 2 nM. Captured antibody and antigen were removed between each cycle using 3 M MgCl₂ (60 second contact time) in order to ensure a fresh binding surface for each concentration of antigen. The resulting sensorgrams were fit globally using a 1:1 binding model in order to calculate on- and off-rates (kₐ and kd, respectively), as well as affinities (KD).
On the technique in general: Surface plasmon resonance follows binding to a sensor surface in real time, without labels.

Experiment [3] deals with T2, full-length human PD-1 on the cell surface (human, UniProt Q15116 25-288). Nature of the experiment: cell-based or functional assay.
T2 sequence (Q15116 25-288): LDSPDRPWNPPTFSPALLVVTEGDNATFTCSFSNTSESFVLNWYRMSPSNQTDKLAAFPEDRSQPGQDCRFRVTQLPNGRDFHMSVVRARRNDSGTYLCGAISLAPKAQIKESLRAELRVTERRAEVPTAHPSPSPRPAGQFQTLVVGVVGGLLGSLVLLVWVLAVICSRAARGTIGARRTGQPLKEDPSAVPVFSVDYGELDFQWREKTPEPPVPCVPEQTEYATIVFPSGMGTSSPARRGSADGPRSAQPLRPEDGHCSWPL
The target of experiment [4] is T2, full-length human PD-1 on the cell …. The experiment can be described thus: hybridoma screening, flow cytometry on PD-1 CHO-K1 cells (Example 1). The method, then:
Hybridoma supernatants from ten 96-well plates were screened for binding to a CHO-K1 cell clone stably transfected with a nucleic acid sequence encoding full length human PD-1 and compared to binding to untransfected CHO-K1 cells. Specifically, hybridoma supernatants were diluted 1:1 with PBS/2% FBS and incubated with an equal volume of PD-1 CHO-K1 cells (2.5×10⁵ cells in PBS, 2% FBS) for 30 minutes at 4° C. Cells were centrifuged, washed once with PBS/1% FBS, and incubated with APC-conjugated goat anti-mouse IgG (H+L) (Southern Biotechnology, Birmingham, Ala.) for 30 minutes at 4° C. […] Mouse IgG levels were quantified by ELISA.
Background: In flow cytometry, cells or beads pass a laser one at a time.

For experiment [5] the target is unchanged. Nature of the experiment: binding to PD-1 antigens as in Example 1 (format not restated).

Where a chain is given by its changes, count along the chain named.

T1 sequence (Q15116 25-170): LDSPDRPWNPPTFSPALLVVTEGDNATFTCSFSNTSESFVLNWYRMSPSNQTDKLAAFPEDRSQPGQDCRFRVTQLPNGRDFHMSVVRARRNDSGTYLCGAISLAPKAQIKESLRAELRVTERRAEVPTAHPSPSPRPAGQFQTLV

B1: APE1923 (antibody, human IgG1, V domains shown)
VH: EVQLLESGGGLVQPGGSLRLSCAASGFTFSSYTMSWVRQAPGKGLEWVSVISSGGNSAYYPDSVQGRFTISRDNSKNTLYLQMNSLRAEDTAVYYCAKEHYGTSHFAYWGQGTLVTVSS
VL: EIVLTQSPATLSLSPGERATLSCRASESVDNFGISFMSWYQQKPGQAPRLLIYAASNPGSGIPARFSGSGSGTDFTLTISSLEPEDFAVYYCQQSKEVPYTFGQGTKLEIK
notes: expressed from HEK 293 cells as human IgG1
Consider B1, for which the Kd in experiment [1] was 1 nM. In experiment [2], this molecule returned a Kd of 9 nM, a koff of 0.0017 s⁻¹ and a kon of 190000 M⁻¹ s⁻¹.

B2: APE1963 (antibody, human IgG1, V domains shown)
VH: B1 VH with H100Y, T103S
VL: B1 VL
notes: as for B1
Consider B2, for which, in experiment [2], the dissociation constant (Kd) is 17 nM, the koff was determined as 0.001 s⁻¹ and the on-rate (kon) stood at 58000 M⁻¹ s⁻¹.

B3: APE1950 (antibody, human IgG1, V domains shown)
VH: B1 VH with N56D, A58T
VL: B1 VL
notes: as for B1
As to B3, in experiment [2], the affinity, expressed as Kd, was 17 nM; the off-rate (koff) was 0.0025 s⁻¹; the kon came out at 150000 M⁻¹ s⁻¹.

B4: APE1924 (antibody, human IgG1, V domains shown)
VH: B1 VH with S57Y
VL: B1 VL
notes: as for B1
Regarding B4, the Kd in experiment [1] is roughly 1 nM. In experiment [2], this molecule showed a Kd of 10 nM, a dissociation rate constant (koff) of 0.0018 s⁻¹ and a kon of 180000 M⁻¹ s⁻¹.

B5: APE1922 (antibody, human IgG1, V domains shown)
VH: B1 VH with N56D
VL: B1 VL
notes: as for B1
With B5, in experiment [2], the affinity, expressed as Kd, was 15 nM; the dissociation rate constant (koff) came to 0.0018 s⁻¹; the kon turned out to be 130000 M⁻¹ s⁻¹.

B6: APE2058 (antibody, human IgG1, V domains shown)
VH: EVQLLESGGGLVQPGGSLRLSCAASGFTFSSYDMSWVRQAPGKGLEWVSTISGGGSYTYYQDSVKGRFTISRDNSKNTLYLQMNSLRAEDTAVYYCASPYYAMDYWGQGTTVTVSS
VL: DIQLTQSPSFLSAYVGDRVTITCKASQDVGTAVAWYQQKPGKAPKLLIYWASTLHTGVPSRFSGSGSGTEFTLTISSLQPEDFATYYCQHYSSYPWTFGQGTKLEIK
notes: expressed from HEK 293 cells as human IgG1; also called anti-PD-1
In turn, B6 gave a Kd in experiment [1] of 0.2 nM. In experiment [2], this molecule showed a Kd of 2 nM, a koff of 0.00064 s⁻¹ and a kon of 300000 M⁻¹ s⁻¹. Also, in experiment [3], the “EC50, multiple human CD4+ T-cell MLR assays” value came to 0.02 µg/mL.

B7: 6E9 (mouse monoclonal antibody) (antibody, V domains shown)
VH: EVMLVESGGGLVKPGGSLKLSCAASGFTFSSYDMSWVRQTPEKRLEWVATISGGGSYTYYQDSVKGRFTISRDNAKNTLYLQMSSLRSEDTAMYYCASPYYAMDYWGQGTSVTVSS
VL: DIVMTQSHKFMSTSVGDRVSITCKASQDVGTAVAWYQQKPGQSPKLLIYWASTRHTGVPDRFTGSGSGTDFTLTISNVQSEDLADYFCQHYSSYPWTFGGGTKLEIKR
notes: Mouse hybridoma antibody
B7: the binding result in experiment [4] is recorded as “binds”.

B8: 6E9 mouse:human chimeric antibody (antibody, human IgG1, V domains shown)
VH: B7 VH
VL: B7 VL
notes: also called chimeric 6E9
For B8, in experiment [5], the binding result is listed as “binds”.

B9: 9A2 (mouse monoclonal antibody) (antibody, V domains shown)
VH: DVKLVESGGGLVKPGGSLKLSCAASGFTFSSYTLSWVRQTPGKRLEWVAVISSGGDYAYYPDSVQGRFTISRDNAKNTLYLQMNSLKSEDTAMYYCSRDHYGTSHFAYWGQGTLVTVSA
VL: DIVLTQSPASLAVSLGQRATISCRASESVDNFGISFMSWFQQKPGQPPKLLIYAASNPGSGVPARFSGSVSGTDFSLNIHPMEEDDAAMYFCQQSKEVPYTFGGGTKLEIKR
notes: Mouse hybridoma antibody
Consider B9, for which the binding result in experiment [4] was “binds”.

B10: 9A2 mouse:human chimeric antibody (antibody, human IgG1, V domains shown)
VH: B9 VH
VL: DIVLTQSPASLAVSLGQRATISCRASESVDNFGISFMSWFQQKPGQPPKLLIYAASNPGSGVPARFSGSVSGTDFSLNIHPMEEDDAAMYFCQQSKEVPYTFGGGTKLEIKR
notes: also called chimeric 9A2
B10: in experiment [5], the binding result was “binds”.

B11: 10B11 (mouse monoclonal antibody) (antibody, V domains shown)
VH: DVKLVESGGGLVKPGGSLKVSCAASGFTFSSYTMSWVRQTPEKRLEWVAVISSGGNSTYYPDSVKGRFTISRDNAKNTLYLQMSSLKSEDTAMYYCTREHYGSSHFAYWGQGTLVTVSA
VL: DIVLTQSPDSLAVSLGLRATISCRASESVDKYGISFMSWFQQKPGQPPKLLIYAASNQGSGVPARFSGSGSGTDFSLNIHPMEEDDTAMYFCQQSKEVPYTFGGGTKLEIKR
notes: Mouse hybridoma antibody
Take B11: the binding result in experiment [4] is on record as “binds”.

B12: 10B11 mouse:human chimeric antibody (antibody, human IgG1, V domains shown)
VH: B11 VH
VL: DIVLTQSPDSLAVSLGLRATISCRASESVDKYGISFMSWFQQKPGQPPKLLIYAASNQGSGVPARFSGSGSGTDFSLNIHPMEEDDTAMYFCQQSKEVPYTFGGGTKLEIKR
notes: also called chimeric 10B11
As for B12, in experiment [5], the binding result is reported as “binds”.

A word on the Kd: it is the equilibrium constant for the complex coming apart. Usually koff stands for a measure of how fast the partners let go of each other. Low values mean a long-lived complex, high ones a short-lived complex. By kon is commonly meant a measure of how fast the partners come together. High values mean faster complex formation, low ones slower complex formation.
